Data set [1] concerns T1, fusion protein of glutathione S transferase and human DDR2 cytosolic tyrosine kinase domain (GST-DDR2 CKD), expressed alone in sf9 cells.
T1 sequence: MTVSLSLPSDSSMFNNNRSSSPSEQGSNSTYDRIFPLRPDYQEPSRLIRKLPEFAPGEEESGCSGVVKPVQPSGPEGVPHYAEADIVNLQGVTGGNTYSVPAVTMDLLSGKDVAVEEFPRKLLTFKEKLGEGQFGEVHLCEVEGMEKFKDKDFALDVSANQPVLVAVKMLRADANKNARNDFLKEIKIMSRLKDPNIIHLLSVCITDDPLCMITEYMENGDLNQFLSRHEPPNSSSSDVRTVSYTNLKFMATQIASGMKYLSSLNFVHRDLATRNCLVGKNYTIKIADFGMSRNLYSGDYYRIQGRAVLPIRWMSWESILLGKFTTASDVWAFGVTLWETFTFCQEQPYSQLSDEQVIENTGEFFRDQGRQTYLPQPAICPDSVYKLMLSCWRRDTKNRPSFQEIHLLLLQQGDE

For a further data set, the system named is Histone H2B. The data set can be described thus: tyrosine kinase activity using Histone H2B as substrate. Format: biochemical. The conditions noted are these: reciprocal plotting 1/V vs 1/[ATP]; FIG. 9, FIG. 10. As to the method:
The GST-DDR2 CKD was solely expressed or co-expressed with the c-Src protein at the ratio of 1:1 in insect cells; the respective obtained GST-DDR2 CKDs were purified; and the tyrosine kinase activities depending on the concentration of ATP were determined using the same amounts of the tyrosine phosphorylation-induced GST-DDR2 CKD (p-GST-DDR2 CKD by Src) which is obtained by co-expression with the c-Src protein in sf 9 cells and non-phosphorylated GST-DDR2 CKD which is obtained by solely expression in sf9 cells.
All measurements were done in triplicate.
The same amount of each protein as judged by CBB staining was used to measure its in vitro tyrosine kinase activity using histone H2B as a substrate as described in materials and methods and their tyrosine kinase activities were shown by autoradiography. Negative stands for a kinase reaction without kinase protein as a control.
Measurement of DDR2 tyrosine kinase activity towards heterologous peptide substrates was performed using 100 ng of the purified kinase protein in 20 ul of reaction mixture containing 20 mM Tris-HCl, pH 8.0, 5 mM MgCl2, 0.5 mM dithiothreitol, 0.01 mM ATP. […] The spotted filter was washed with 0.1M Tris-HCl (pH 8.0) five times for 10 min each and the radioactivity of each spot was visualized and quantitated using BAS image analyzer (Kodak).

Another data set concerns shc protein. Description: in vitro shc binding assay using HSC T6 cell lysate. On the set-up: species or system human. The source says:
One of the characteristic features of tyrosine phosphorylated cytosolic domain of receptor tyrosine kinase is to recruit the signaling proteins such as shc protein. This complex formation between the cytosolic domain of receptor tyrosine kinase protein and signaling proteins such as shc is important for the cellular transmission of the activated receptor tyrosine kinase signal. It has been observed in HSC T6 liver stellate cells and fibroblast cells that shc, one of signaling protein containing PTB domain binds to activated DDR2 cytosolic domain. The present inventors examined whether the invented DDR2 cytosolic tyrosine kinase domain protein with induced tyrosine phosphorylation for example, by the method of co-expression with c-Src in sf 9 cells or with the mutation of tyrosine 740 to phenylalanine 740 can be used for in vitro shc binding assay. In FIG. 15, the purified GST-DDR2 cytosolic domain from sf 9 cells with and without Src coinfection were used for in vitro shc binding assay. Each protein was subject to autophosphorylation reaction at 30° C. for 15 min, and a mock-autophosphylation reaction as well where gamma-S-ATP was used instead of ATP in the reaction buffer before they were used for in vitro shc binding assay using HSC T6 cell lysate.
The purified GST-DDR2 CKD proteins without or with tyrosine phosphorylation by Src were subject to in vitro shc binding assay after autophosphorylation reaction or a mock-autophosphorylation reaction as described in materials and methods. The bound proteins on the glutathione bead were eluted by boiling in 1× lameli buffer. The presence of shc in the eluate was measured by western blotting using shc antibody and the accumulation of tyrosine phosphorylation at GST-DDR2 CKD proteins resulted from autophosphorylation was shown by western blotting using P-tyro antibody. The presence of an equal amount of GST-DDR2 CKD proteins in each eluate was confirmed by CBB staining. ‘Bead only’ means that no GST-DDR2 CKD protein was applied on glutathione bead as a control.
The same type of experiment was done as FIG. 15 using purified GST-DDR2 CKD phosphorylated by src and its mutant proteins of Y740F and Y736/740/741F.
As a source of shc protein, total lysate of HSC T6 cells was used. For the preparation of the lysate, 2×10^7 HSC T6 cells were harvested and lysed by sonication in 5 ml of lysis buffer consisting of 20 mM Tris-HCl (pH8.0), 0.1M NaCl, 5 mM DTT, 10 mM NaF, […], 0.02% IGE-PAL (Sigma) and a proteinase inhibitor cocktail pellet (Roche). The supernatant was obtained by centrifugation in 15,000 rpm for 10 min at 4° C. and used for the following shc binding assay. Various GST-DDR2 KD proteins bound to glutathione bead were obtained as described above. […]

For the molecule full-length human c-Src tyrosine kinase, in data set [1], the “level of tyrosine phosphorylation of GST-DDR2 CKD against the ratio of the two baculoviruses (western blot, phosphorylated tyrosine specific antibody)” value was “The tyrosine phosphorylation at the DDR2 cytosolic tyrosine kinase domain was meaningfully induced, when the DDR2 kinase expression virus and the c-Src protein expression virus are co-expressed even at the ratio of 19:1”.

B1: p-GST-DDR2 CKD by Src: tyrosine phosphorylation-induced GST-DDR2 CKD obtained by co-expression with the c-Src protein in sf 9 cells (protein)
chain: T1 sequence
modifications: left off: a dimerising Fc or GST
notes: tyrosine phosphorylation-induced GST-DDR2 CKD obtained by co-expression with the c-Src protein in sf 9 cells
In the case of B1, in the data set with Histone H2B, the “Km value for ATP compared with the non-phosphorylated control protein” value is recorded as “decreased” and the “Vmax compared with the non-phosphorylated control protein” value was “increased”. Also, the “shc binding after in vitro autophosphorylation reaction” value in the data set on shc protein (autophosphorylation at 30° C. for 15 min, FIG. 15, FIG. 16) is reported as “significantly increased”. In the data set on shc protein (mock-autophosphorylation with gamma-S-ATP, FIG. 15), the “shc binding before in vitro autophosphorylation” value is recorded as “some shc binding”.
